# Assay results as given in US20090016988A1.
# Assays:
# [1] = biological target: MPPT2 (proaerolysin with a uPA cleavage site in the activation sequence, an N-terminal AFAI antibody fragment and a His tag) (Aeromonas hydrophila); assay: cell-based or functional assay
# [2] = biological target: MPPT3 (proaerolysin with a uPA cleavage site in the activation sequence, an AFAI antibody fragment attached by a uPA-cleavable linker, and a His tag) (Aeromonas hydrophila); assay: cell-based or functional assay
substance,measurement,setting,value
urokinase-type plasminogen activator (uPA) (enzyme),"Hemolytic activity after 60 minutes (horse red blood cells, after uPA digestion) (hemolytic titer (wells showing lysis))",[1],4.5
same,"Hemolytic activity after 60 minutes (horse red blood cells, after uPA digestion) (hemolytic titer (wells showing lysis))",[2],8
